Source: the DeepSol protein solubility set

Assay: soluble on expression in E. coli; label from the status in PepcDB or PDB records

Sequence: MVVEMLGKLKEKLQSFIRRVEENVEKEEDEAKKKGLLDKILMIEIKEKDIEEALEDLELELLEADVALEVVDELKDRIKRNLVGKKVRIGTNKEKIIEEAVRKAVLEILTPEKKMDLLEEIKKAEKPYVILFVGFNGSGKTTTIAKLAHWLKKNGFSVVIAASDTFRAGAIEQLEEHAKKVGVKVIKHKYGADPAAVAYDAIQHAKARGIDVVLIDTAGRSETNRNLMDEMKKIARVTKPNLVIFVGDSLAGNAIVEQARQFNQAVKIDGVILTKLDADARGGAALSISHVINAPILFVGIGQGYEDLIPFDERWFVEKILGEESA
- soluble on expression in E. coli: soluble

Sequence: RTLELAFSSEAAEVQTRSGVEILGHRINEVRMHRLDNGAALLLDHNPREHIGVVESASIDSDHRGRAIVRFGRSPRAEEILRDVLDGIRKHVSVGYLVHQVEVIGQRDAGPLYRATDWEPIEISIVSIPADPSVGIGRALENLPQD
- soluble on expression in E. coli: not soluble

Sequence: MSWQNQGMQALIPVINRVQDAFSQLGTSVSFELPQIAVVGGQSAGKSSVLENFVGKDFLPRGSGIVTRRPLILQLIQDRNEYAEFLHKKGHRFVDFDAVRKEIEDETDRVTGQNKGISPHPINLRVFSPNVLNLTLIDLPGLTKVPVGDQPADIEQQIRDMILTFINRETCLILAVTPANSDLATSDALKLAKEVDPQGLRTIGVLTKLDLMDEGTDAREILENKLFTLRRGYVGVVNRGQKDIVGRKDIRAALDAERKFFISHPSYRHMADRLGTSYLQHTLNQQLTNHIRDTLPTLRDSLQKKMFAMEKDVAEYKNYQPNDPGRKTKALLQMVTQFNADIERSIEGSSAKLVSTNELSGGARINRLFHERFPFEIVKMEIDEKEMRKEIQYAIRNIHGIRVGLFTPDMAFEAIAKKQITRLKEPSLKCVDLVVNELANVIRQCADTMARYPRLRDELERIVVSHMREREQIAKQQIGLIVDYELAYMNTNHEDFIGFSNAEAKASQGQSAKKNLGNQVIRKGWLSLSNVSFVRGSKDNWFVLMSDSLSWYKDDEEKEKKYMLPLDGVKLKDIEGGFMSRNHKFALFYPDGKNIYKDYKQLELGCTNLDEIDAWKASFLRAGVYPEKQKAQEDESQQEMEDTSIDPQLERQVETIRNLVDSYMRIITKTIKDLVPKAVMHLIVNQTGEFMKDELLAHLYQCGDTDALMEESQIEAQKREEMLRMYHACKEALRIISEVNMSTLGDQPPPLPMSDYRPHPSGPSPVPRPAPAPPGGRQAPMPPRGGPGAPPPPGMRPPPGAPGGGGGMYPPLIPTRVPTPSNGAPEIPARPQVPKRPF
- soluble on expression in E. coli: not soluble

Sequence: MKAEKVRLRKQIIEHMNSLSEEQYTTLSEQIAFSLYAQKEWVEAKTIGITLSMENEVNTYPIIEKAWEEGKKVVVPKCNKGTRTMSFRQINNFDQLETVYMNLREPIPGLTEEVNMDEIDLQIVPGVAYTERGERIGYGGGYYDRYLVHYKGKTLSLAYDFQMVKHIPVEPFDKNIEKIITEKGTLLTNKLVLEHHHHHH
- soluble on expression in E. coli: soluble

Sequence: MTVSTPEQHEQRASHDASEGKHNVCQGRLAALADAAVSEKLGALPGWQLLDMRLSRAFQCTNFDQSIDFMNRVASIANDINHHPDIAVLDKRSVRVTAWTRKLGYLTDIDFDLAASVEAMYATEFADRPAR
- soluble on expression in E. coli: soluble

Sequence: QVQLLESGAVLARPGTSVKISCKASGFNIKDYYMHWVKQRPGQGLEWIGGNDPANGHSMYDPKFQGRVTITADTSTSTVFMELSSLRSEDTAVYYCARDSGYAMDYWGQGTLVTVSSASTKGPSVFPLAPCSRSTSESTAALGCLVKDYFPEPVTVSWNSGALTSGVHTFPAVLQSSGLYSLSSVVTVPSSSLGTKTYTCNVDHKPSNTKVDKRVES
- soluble on expression in E. coli: soluble

Sequence: MVHTADNAWRAHIPLMYREDFLCSSGVARWNEEFPRHCVVSQHDRHKTKSVLVILFLIAMRNIKNNRGTFTRIKDRLSSALKSPASLFRRSPEISLREDILSWKKSPHSLAASEYGGSDLLVQFLKQQTSDDYVDFWLESGEYRWTRTKPGRKRDIEAQRIYDKFVYGECPRKIAHLEKMCFVSRQGPTGRDVFICAQAYVGTNFPKDSYKKFLQDPIYLNLLKTVSSGATQLNE
- soluble on expression in E. coli: not soluble

Sequence: MHFKTKLKNRRSEVNTCLCIGLDPDEDDIKNFMKNEEQNGYKNIKNNMNSNNNGIENIIKIGKEILLTDGENIQNLSEEDKFFYFFNHFCFYIINNTKEYALVYKMNFAFYIPYGSVGINALKNVFDYLNSMNIPTMLDMKINDIGNTVKNYRKFIFEYLKSDSCTINVYMGTNMLKDICFDYEKNKYYSAYVLIKTTNKDSFIFQNELSINDKQAYIVMADETQKMATELKIEQNNEFIGFVVGSNAFEEMKIIRNKFPDSYILSPGIGAQNGDLYKTLKNGYNKDYEKLLINVGRAITKSPDPKKSSESYYNQIIQIFKDIENGDNIEQV
- soluble on expression in E. coli: soluble
